Results as given in the Immune Epitope Database (IEDB).

Key:
HLA-B*15:09 = experiment: IEDB peptide-MHC binding, purified MHC/direct/fluorescence; filed as Kd, often an IC50 or EC50 that approximates it; ≥ and ≤ were set here for values at or beyond the usual limits of such assays
HLA-B*39:01 [1] = experiment: as above
HLA-A*01:01 = experiment: as above
HLA-A*02:01 = experiment: as above
HLA-A*02:03 = experiment: as above; details: source organism: Influenza A virus (A/Taiwan/2/2006(H1N1))
HLA-A*02:06 = experiment: as above; details: source organism: Influenza A virus (A/Taiwan/2/2006(H1N1))
HLA-A*02:11 = experiment: as above
HLA-A*02:12 [2] = experiment: as above
HLA-A*03:01 [3] = experiment: as above
HLA-A*11:01 = experiment: as above; details: source organism: Influenza A virus (A/camel/Mongolia/1982(H1N1))
HLA-A*24:02 [4] = experiment: as above; details: source organism: Influenza A virus (A/camel/Mongolia/1982(H1N1))
HLA-A*31:01 [5] = experiment: as above
HLA-B*07:02 = experiment: as above
HLA-B*08:01 = experiment: as above; details: source organism: Influenza A virus (A/camel/Mongolia/1982(H1N1))
HLA-B*15:01 = experiment: as above
HLA-B*18:01 [6] = experiment: as above
HLA-B*27:05 [7] = experiment: as above
HLA-B*40:01 [8] = experiment: as above
HLA-B*44:02 = experiment: as above
HLA-B*46:01 = experiment: as above
HLA-B*58:01 = experiment: as above
HLA-A*02:19 [9] = experiment: as above; details: source organism: Yersinia enterocolitica subsp. enterocolitica 8081
HLA-A*24:03 = experiment: as above; details: source organism: Yersinia enterocolitica subsp. enterocolitica 8081
HLA-B*15:17 = experiment: as above; details: source organism: Yersinia enterocolitica subsp. enterocolitica 8081
HLA-B*27:03 [10] = experiment: as above; details: source organism: Yersinia enterocolitica subsp. enterocolitica 8081
HLA-B*57:01 = experiment: as above
HLA-C*06:02 = experiment: as above; details: source organism: Toxoplasma gondii
HLA-C*14:02 = experiment: as above
HLA-C*15:02 = experiment: as above
HLA-A*02:12 [11] = experiment: IEDB peptide-MHC binding, purified MHC/competitive/fluorescence; filed as Kd, often an IC50 or EC50 that approximates it; ≥ and ≤ were set here for values at or beyond the usual limits of such assays; details: source organism: Toxoplasma gondii
HLA-A*02:19 [12] = experiment: as above; details: source organism: Toxoplasma gondii
HLA-A*03:01 [13] = experiment: as above; details: source organism: Toxoplasma gondii
HLA-A*26:01 [14] = experiment: as above; details: source organism: Toxoplasma gondii
HLA-A*31:01 [15] = experiment: as above; details: source organism: Toxoplasma gondii
HLA-B*18:01 [16] = experiment: as above; details: source organism: Toxoplasma gondii
HLA-B*27:03 [17] = experiment: as above; details: source organism: Toxoplasma gondii
HLA-B*39:01 [18] = experiment: as above; details: source organism: Toxoplasma gondii
HLA-B*40:01 [19] = experiment: as above
HLA-B*27:05 [20] = experiment: as above
HLA-C*07:02 = experiment: IEDB peptide-MHC binding, purified MHC/direct/fluorescence; filed as Kd, often an IC50 or EC50 that approximates it; ≥ and ≤ were set here for values at or beyond the usual limits of such assays
HLA-A*24:02 [21] = experiment: IEDB peptide-MHC binding, purified MHC/competitive/fluorescence; filed as Kd, often an IC50 or EC50 that approximates it; ≥ and ≤ were set here for values at or beyond the usual limits of such assays
HLA-A*26:02 = experiment: IEDB peptide-MHC binding, purified MHC/direct/fluorescence; filed as Kd, often an IC50 or EC50 that approximates it; ≥ and ≤ were set here for values at or beyond the usual limits of such assays
HLA-A*69:01 = experiment: as above; details: source organism: Lassa virus Josiah
HLA-B*48:01 = experiment: as above; details: source organism: Lassa virus Josiah
HLA-A*26:01 [22] = experiment: as above; details: source organism: Vibrio cholerae V52
[23] = source organism: Influenza A virus (A/camel/Mongolia/1982(H1N1))
[24] = source organism: Influenza A virus (A/Taiwan/2/2006(H1N1))
[25] = source organism: Yersinia enterocolitica subsp. enterocolitica 8081
[26] = source organism: Toxoplasma gondii
[27] = source organism: Vibrio vulnificus YJ016
[28] = source organism: Influenza A virus (A/Harbin/1/1988(H1N2))
[29] = source organism: Lassa virus Josiah

Q: Which results are given for TRVTNNVYL?
A: Kd (HLA-B*15:09; source organism: Variola virus): 4.06 µM; Kd (HLA-B*39:01 [1]; source organism: Camelpox virus M-96): 0.0198 µM

Q: For ELDEIGEDV, which Kd (HLA-A*01:01; [23]) is on record?
A: ≥ 20 µM

Q: What about the Kd (HLA-A*02:01; source organism: Influenza A virus (A/Puerto Rico/8/34/Mount Sinai(H1N1))) of the same sequence?
A: 2.44 µM

Q: What about the Kd (HLA-A*02:03) of the same sequence?
A: ≥ 5 µM

Q: What about the Kd (HLA-A*02:06) of the same sequence?
A: ≥ 20 µM

Q: And the Kd (HLA-A*02:11; [24])?
A: 0.134 µM

Q: And the Kd (HLA-A*02:12 [2]; [24])?
A: 1.5 µM

Q: What about the Kd (HLA-A*03:01 [3]; [23]) of the same sequence?
A: ≥ 20 µM

Q: What about the Kd (HLA-A*11:01) of the same sequence?
A: ≥ 20 µM

Q: And the Kd (HLA-A*24:02 [4])?
A: ≥ 20 µM

Q: And the Kd (HLA-A*31:01 [5]; [23])?
A: ≥ 20 µM

Q: What about the Kd (HLA-B*07:02; [23]) of the same sequence?
A: ≥ 20 µM

Q: And the Kd (HLA-B*08:01)?
A: ≥ 20 µM

Q: And the Kd (HLA-B*15:01; [23])?
A: ≥ 20 µM

Q: And the Kd (HLA-B*15:09; [24])?
A: ≥ 20 µM

Q: What about the Kd (HLA-B*18:01 [6]; [23]) of the same sequence?
A: ≥ 20 µM

Q: And the Kd (HLA-B*27:05 [7]; [23])?
A: ≥ 20 µM

Q: And the Kd (HLA-B*40:01 [8]; [23])?
A: ≥ 20 µM

Q: And the Kd (HLA-B*44:02; [23])?
A: ≥ 20 µM

Q: And the Kd (HLA-B*46:01; [23])?
A: ≥ 20 µM

Q: And the Kd (HLA-B*58:01; [23])?
A: ≥ 20 µM

Q: How did the Kd (HLA-A*02:11; [25]) turn out when YIYDGKVNY was run?
A: ≥ 20 µM

Q: What about the Kd (HLA-A*02:12 [2]; [25]) of the same sequence?
A: ≥ 20 µM

Q: And the Kd (HLA-A*02:19 [9])?
A: ≥ 20 µM

Q: And the Kd (HLA-A*24:03)?
A: ≥ 20 µM

Q: And the Kd (HLA-B*15:17)?
A: 0.003 µM

Q: And the Kd (HLA-B*18:01 [6]; [25])?
A: ≥ 20 µM

Q: And the Kd (HLA-B*27:03 [10])?
A: ≥ 20 µM

Q: And the Kd (HLA-B*39:01 [1]; [25])?
A: ≥ 20 µM

Q: What about the Kd (HLA-B*57:01; [25]) of the same sequence?
A: ≥ 20 µM

Q: With RTWFYRTEF as the sequence, how does the Kd (HLA-C*06:02) read?
A: ≥ 20 µM

Q: And the Kd (HLA-C*14:02; [26])?
A: 0.153 µM

Q: And the Kd (HLA-C*15:02; [26])?
A: 0.127 µM

Q: What about the Kd (HLA-A*02:12 [11]) of the same sequence?
A: ≥ 20 µM

Q: And the Kd (HLA-A*02:19 [12])?
A: ≥ 20 µM

Q: What about the Kd (HLA-A*03:01 [13]) of the same sequence?
A: ≥ 20 µM

Q: What about the Kd (HLA-A*26:01 [14]) of the same sequence?
A: ≥ 20 µM

Q: What about the Kd (HLA-A*31:01 [15]) of the same sequence?
A: 0.0262 µM

Q: And the Kd (HLA-B*18:01 [16])?
A: ≥ 20 µM

Q: What about the Kd (HLA-B*27:03 [17]) of the same sequence?
A: ≥ 20 µM

Q: And the Kd (HLA-B*39:01 [18])?
A: ≥ 20 µM

Q: Which Kd (HLA-B*40:01 [19]; source organism: Escherichia coli E22) does the source give for LEALSPPLL here?
A: 0.0055 µM

Q: For AREIRDQGY, which Kd (HLA-B*27:05 [20]; source organism: Escherichia coli 536) is on record?
A: ≥ 20 µM

Q: For YYGRWVHEF, which Kd (HLA-C*07:02; [27]) is on record?
A: 0.046 µM

Q: What about the Kd (HLA-C*14:02; [27]) of the same sequence?
A: 0.025 µM

Q: What about the Kd (HLA-C*15:02; [27]) of the same sequence?
A: ≥ 20 µM

Q: What about the Kd (HLA-A*24:02 [21]; [27]) of the same sequence?
A: ≤ 0.0001 µM

Q: For EVHTWTEQY, which Kd (HLA-A*26:02; source organism: dengue virus type 3) is on record?
A: ≤ 0.001 µM

Q: What does the source list for GRINYYWTL?
A: Kd (HLA-C*07:02; [28]): 0.025 µM; Kd (HLA-B*27:05 [20]; [28]): 0.049 µM

Q: For NHYLCLNCL, which Kd (HLA-A*01:01; [29]) is on record?
A: ≥ 20 µM

Q: And the Kd (HLA-A*02:01; [29])?
A: ≥ 20 µM

Q: What about the Kd (HLA-A*03:01 [3]; [29]) of the same sequence?
A: ≥ 20 µM

Q: And the Kd (HLA-A*31:01 [5]; [29])?
A: ≥ 20 µM

Q: What about the Kd (HLA-A*69:01) of the same sequence?
A: ≥ 20 µM

Q: What about the Kd (HLA-B*07:02; [29]) of the same sequence?
A: ≥ 20 µM

Q: What about the Kd (HLA-B*15:01; [29]) of the same sequence?
A: ≥ 20 µM

Q: And the Kd (HLA-B*15:09; source organism: Mammarenavirus lassaense)?
A: 0.431 µM

Q: And the Kd (HLA-B*27:05 [7]; [29])?
A: ≥ 20 µM

Q: What about the Kd (HLA-B*39:01 [1]; [29]) of the same sequence?
A: 0.026 µM

Q: And the Kd (HLA-B*40:01 [8]; [29])?
A: ≥ 20 µM

Q: What about the Kd (HLA-B*44:02; [29]) of the same sequence?
A: ≥ 20 µM

Q: And the Kd (HLA-B*46:01; [29])?
A: ≥ 20 µM

Q: And the Kd (HLA-B*48:01)?
A: ≥ 20 µM

Q: What about the Kd (HLA-B*57:01; [29]) of the same sequence?
A: ≥ 20 µM

Q: And the Kd (HLA-B*58:01; [29])?
A: ≥ 20 µM

Q: LEVSFGSVI was tested. Which Kd (HLA-B*40:01 [19]; source organism: Salmonella enterica subsp. enterica serovar Typhi) did it give?
A: 0.0035 µM

Q: With DIIWHLNDL as the sequence, how does the Kd (HLA-A*26:01 [22]) read?
A: 0.479 µM

Q: What about the Kd (HLA-A*26:02; source organism: Vibrio cholerae V52) of the same sequence?
A: 0.003 µM

Q: For RLGKGYMF, which Kd (HLA-A*24:02 [21]; source organism: Influenza A virus (A/Fort Monmouth/1/1947-mouse adapted(H1N1))) is on record?
A: 0.0326 µM

Q: With GEINGEHVP as the sequence, how does the Kd (HLA-B*40:01 [19]; source organism: Escherichia coli B7A) read?
A: 0.0878 µM
